Reference: patent US20220259306A1

Assays:
[1] = target: human NKG2A/CD94 on the cell surface (CHOk1-hNKG2A/CD94 stable cell line) (human) (UniProt P26715); experiment: FACS blocking assay: HLA-E-PE binding to CHOk1-hNKG2A/CD94 cells in the presence of the antibody
[2] = target: human NKG2A/CD94 on the cell surface (CHOk1-hNKG2A/CD94 stable cell line) (human) (UniProt P26715); experiment: FACS on CHOK1-hNKG2A/CD94 cells, Alexa 488 secondary antibody
[3] = target: human NKG2A/CD94 on the cell surface (CHOk1-hNKG2A/CD94 stable cell line) (human) (UniProt P26715); experiment: FACS on CHOK1-hNKG2A/CD94 cells

| IC50 (read off the curve) [1] | EC50 (read off the curve) [2] | EC50 (read off the curve) [3] | Binder |
| --- | --- | --- | --- |
| 1 nM | 0.8 nM |  | Mab033 (antibody, V domains shown) VH: EVQLQQSVAEFVRPGASVRLSCTASGFNIENTYIHWLKQRPEQGLEWIGRIDPANGDTQYDPKFQGKATLTAATSSNTAYLQLSGLTSEDTAIYYCTRYGDYLFYYSLKYWGQGTSVTVSS VL: DIVMTQAAPSVSVTPGESVSISCRSSKSLLHSNGNTYLYWFLQRPGQSPQLLIYRMSNLASGVPDRFSGSGSGTAFTLRISRVEAEDVGVYYCMQHLESPYTFGGGTKLEIK |
| 1 nM | 0.8 nM |  | Mab032 (antibody, V domains shown) VH: EVQLQQSVAELVRPGASVRLSCTGSGFNIENTYMHWLKQRPEQGLEWIGRIDPADGDTQYAPKFQGKATITTDTSSNTAYLQLSSLTSEDTAIYYCARYGNYLFYYSMDYWGQGTSVTVSS VL: DIVMTQAAPSVPVTPGESVSISCRSSKSLLHSNGNTYLYWFLQRPGQSPQLLIYRMSNLASGVPDRFSGSGSATAFTLRISRVEAEDVGIYYCMQHLEYPYTFGGGTKLEIK |
|  | 0.7 nM |  | Mpb416 (antibody, V domains shown) VH: QVQLQQSVAELVRPGASVKLSCTASGFNIQNTYIHWVKQRPEQGLEWIGKIDPANGDTKYAPTFQGKATITADTSSNTAYLQLSSLTPEDTAIYYCARYRDYLFYYALGYWGQGTSVTVSS VL: DIVMTQSAPSVPVTPGESVSISCRSSKSLLHSNGNTYLYWFLQRPGQSPQLLIYRMSNLASGVPDRFSGSGSGTAFTLRISRVEAEDVGVYYCMQHLEYPYTFGGGTKLEIK |
|  |  | 0.8 nM | M15 (antibody, V domains shown) VH: QVQLQQSVAELVRPGASVKLSCTASGFNIQNTYIHWVKQRPEQGLEWIGKIDPANADTKYAPTFQGKATITADTSSNTAYLQLSSLTPEDTAIYYCARYRDYLFYYALGYWGQGTSVTVSS VL: DIVMTQSAPSVPVTPGESVSISCRSSKSLLHSNANTYLYWFLQRPGQSPQLLIYRMSNLASGVPDRFSGSGSGTAFTLRISRVEAEDVGVYYCMQHLEYPYTFGGGTKLEIK |
| 1 nM | 0.8 nM |  | Mab031 (antibody, V domains shown) VH: EVQLQQSVAELVRPGASVRLSCTGSGFNIQNTYIHWVKQRPEQGLEWIGRIDPANGDTKYAPKFQGKATITADTSSNTAYLQLSSLTSEDTAIYYCTRYGNYLYYYSLDYWGQGTSVTVSS VL: DIVMTQAAPSVPVTPGESVSISCRSSKSLLHSNGNTYLYWFLQRPGQSPQLLIYRMSNLASGVPDRFSGSGSGTAFTLRISRVEAEDMGVYYCMQHLEYPYTFGGGTKLEIK |
|  |  | 1 nM | M15-5 (antibody, V domains shown) VH: QVQLVQSGAEVKKPGASVKVSCKASGFNIQNTYIHWVKQAPGQGLEWIGKIDPANADTKYAPTFQGRATITADTSTNTAYLELSSLRSEDTAVYYCARYRDYLFYYALGYWGQGTTVTVSS VL: DIVMTQSPLSLPVTPGEPASISCRSSKSLLHSNANTYLYWYLQKPGQSPQLLIYRMSNLASGVPDRFSGSGSGTDFTLKISRVEAEDVGVYYCMQHLEYPYTFGQGTKLEIK |
